Assay results published in patent US20230390337A1.

Biological target: high-affinity non-cleavable CD16 (hnCD16) Fc receptor
Assay: cell-based or functional assay

With Rituximab (antibody) the % specific cytotoxicity at E:T=1:1 (ADCC against CD19 negative leukemia cells) (% specific cytotoxicity) was 75.6.
